The values below come from IntAct's records for PubMed 12403843.

B1: Vitamin D3 receptor (Homo sapiens), P11473 (parent)
chain: MEAMAASTSLPDPGDFDRNVPRICGVCGDRATGFHFNAMTCEGCKGFFRRSMKRKALFTCPFNGDCRITKDNRRHCQACRLKRCVDIGMMKEFILTDEEVQRKREMILKRKEEEALKDSLRPKLSEEQQRIIAILLDAHHKTYDPTYSDFCQFRPPVRVNDGGGSHPSRPNSRHTPSFSGDSSSSCSDHCITSSDMMDSSSFSNLDLSEEDSDDPSVTLELSQLSMLPHLADLVSYSIQKVIGFAKMIPGFRDLTSEDQIVLLKSSAIEVIMLRSNESFTMDDMSWTCGNQDYKYRVSDVTKAGHSLELIEPLIKFQVGLKKLNLHEEEHVLLMAICIVSPDRPGVQDAALIEAIQDRLSNTLQTYIRCRHPPPGSHLLYAKMIQKLADLRSLNEEHSKQYRCLSFQPECSMKLTPLVLEVFGNEIS

One assay covers variants of B1. Particulars: with ncoa1_human NCOA1, Q15788.
ncoa1_human NCOA1, Q15788, sequence (Q15788 whole entry): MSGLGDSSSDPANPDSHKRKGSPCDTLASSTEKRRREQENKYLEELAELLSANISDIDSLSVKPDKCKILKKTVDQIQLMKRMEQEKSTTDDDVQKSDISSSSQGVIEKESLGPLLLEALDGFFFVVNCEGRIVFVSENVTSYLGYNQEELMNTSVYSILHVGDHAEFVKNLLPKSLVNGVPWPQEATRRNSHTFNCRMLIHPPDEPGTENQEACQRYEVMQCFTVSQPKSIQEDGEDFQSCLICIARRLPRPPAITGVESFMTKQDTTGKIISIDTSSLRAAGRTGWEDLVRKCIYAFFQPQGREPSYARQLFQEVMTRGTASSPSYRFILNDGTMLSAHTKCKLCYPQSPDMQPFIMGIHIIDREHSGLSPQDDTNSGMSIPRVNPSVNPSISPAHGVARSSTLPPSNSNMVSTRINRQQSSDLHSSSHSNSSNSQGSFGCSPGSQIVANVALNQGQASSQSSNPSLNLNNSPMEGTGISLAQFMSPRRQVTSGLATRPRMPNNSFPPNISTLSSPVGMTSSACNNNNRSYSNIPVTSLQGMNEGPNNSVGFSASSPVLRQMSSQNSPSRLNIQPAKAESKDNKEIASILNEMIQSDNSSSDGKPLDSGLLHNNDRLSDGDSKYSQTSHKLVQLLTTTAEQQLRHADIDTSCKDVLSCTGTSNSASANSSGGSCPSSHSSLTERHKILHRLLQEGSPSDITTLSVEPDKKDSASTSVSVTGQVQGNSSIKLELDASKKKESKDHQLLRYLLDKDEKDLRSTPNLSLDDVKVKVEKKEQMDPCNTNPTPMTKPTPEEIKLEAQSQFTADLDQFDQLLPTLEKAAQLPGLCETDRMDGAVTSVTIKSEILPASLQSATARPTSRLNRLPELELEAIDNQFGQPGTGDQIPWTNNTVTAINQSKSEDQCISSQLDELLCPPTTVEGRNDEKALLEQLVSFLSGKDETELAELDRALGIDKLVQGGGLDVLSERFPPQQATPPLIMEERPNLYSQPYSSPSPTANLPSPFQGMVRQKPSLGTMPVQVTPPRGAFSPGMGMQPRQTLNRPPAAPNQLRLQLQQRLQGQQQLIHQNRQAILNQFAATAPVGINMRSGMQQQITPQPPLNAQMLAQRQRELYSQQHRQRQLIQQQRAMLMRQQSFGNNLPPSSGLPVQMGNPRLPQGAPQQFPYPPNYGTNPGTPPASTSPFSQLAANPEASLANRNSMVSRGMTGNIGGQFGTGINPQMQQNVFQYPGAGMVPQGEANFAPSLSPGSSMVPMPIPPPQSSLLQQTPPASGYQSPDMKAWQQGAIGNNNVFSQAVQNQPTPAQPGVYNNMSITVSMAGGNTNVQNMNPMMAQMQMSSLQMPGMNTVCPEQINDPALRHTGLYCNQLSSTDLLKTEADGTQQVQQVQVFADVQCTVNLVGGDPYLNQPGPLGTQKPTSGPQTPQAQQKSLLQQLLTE
Turning to E420K, the “effect of a mutation on the interaction” value is reported as “disrupting interaction strength”.

The next assay covers variants of B1. Particulars: with med1_human MED1, Q15648.
med1_human MED1, Q15648, sequence (Q15648 whole entry): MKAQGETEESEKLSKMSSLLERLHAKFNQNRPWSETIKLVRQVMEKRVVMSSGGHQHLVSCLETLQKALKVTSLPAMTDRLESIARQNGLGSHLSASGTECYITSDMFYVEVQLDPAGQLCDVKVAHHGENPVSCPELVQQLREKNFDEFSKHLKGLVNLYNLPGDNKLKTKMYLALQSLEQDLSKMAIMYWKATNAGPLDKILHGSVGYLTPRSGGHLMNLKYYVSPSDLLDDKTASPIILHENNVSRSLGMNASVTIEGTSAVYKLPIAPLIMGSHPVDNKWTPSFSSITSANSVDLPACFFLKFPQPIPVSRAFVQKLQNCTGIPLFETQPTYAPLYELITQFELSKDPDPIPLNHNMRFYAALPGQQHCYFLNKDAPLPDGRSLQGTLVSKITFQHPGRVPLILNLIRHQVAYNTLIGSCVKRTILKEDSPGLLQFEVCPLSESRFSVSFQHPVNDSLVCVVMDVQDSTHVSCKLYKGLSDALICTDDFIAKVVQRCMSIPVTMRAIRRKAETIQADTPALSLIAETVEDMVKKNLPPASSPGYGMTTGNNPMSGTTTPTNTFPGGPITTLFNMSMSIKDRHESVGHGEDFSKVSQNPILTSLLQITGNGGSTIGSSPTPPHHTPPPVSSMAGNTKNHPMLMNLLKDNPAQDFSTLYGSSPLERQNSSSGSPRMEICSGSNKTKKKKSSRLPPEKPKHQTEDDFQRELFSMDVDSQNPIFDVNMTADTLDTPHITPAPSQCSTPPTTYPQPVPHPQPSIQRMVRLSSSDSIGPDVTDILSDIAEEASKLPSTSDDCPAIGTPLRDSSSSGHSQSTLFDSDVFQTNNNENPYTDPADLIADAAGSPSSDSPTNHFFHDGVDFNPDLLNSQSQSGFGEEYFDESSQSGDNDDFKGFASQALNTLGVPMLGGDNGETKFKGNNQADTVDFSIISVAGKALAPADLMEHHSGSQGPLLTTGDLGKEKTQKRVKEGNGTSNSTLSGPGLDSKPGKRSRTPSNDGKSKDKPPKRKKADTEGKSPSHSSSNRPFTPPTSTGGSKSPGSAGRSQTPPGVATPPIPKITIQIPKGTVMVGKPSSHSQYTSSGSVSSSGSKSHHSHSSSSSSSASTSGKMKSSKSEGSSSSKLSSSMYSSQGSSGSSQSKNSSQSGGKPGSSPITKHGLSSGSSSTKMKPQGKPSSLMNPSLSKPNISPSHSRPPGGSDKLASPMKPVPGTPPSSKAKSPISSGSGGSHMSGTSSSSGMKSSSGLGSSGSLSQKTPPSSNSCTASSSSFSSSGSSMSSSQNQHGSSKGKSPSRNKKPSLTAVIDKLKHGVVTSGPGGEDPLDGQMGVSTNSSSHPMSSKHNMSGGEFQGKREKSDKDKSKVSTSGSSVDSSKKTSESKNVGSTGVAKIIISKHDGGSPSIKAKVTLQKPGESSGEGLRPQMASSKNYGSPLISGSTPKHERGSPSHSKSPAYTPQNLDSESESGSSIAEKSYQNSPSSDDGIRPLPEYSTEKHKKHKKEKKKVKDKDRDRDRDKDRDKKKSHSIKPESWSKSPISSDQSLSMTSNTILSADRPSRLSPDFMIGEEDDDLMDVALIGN
Consider E420K, for which the “effect of a mutation on the interaction” value is “disrupting interaction strength”.
